These results are taken from article PMC10562830.

For the assay, the target named is Chikungunya virus-like particles of the 37997 strain (chikungunya virus (strain 37997)).

B1: 506.C01 (antibody, V domains shown)
VH: QVQLQESGPGLVKPSQTLSLTCTVSGGSISSDDYYWTWIRLPPGKGLEWIGYIFYTGGTYYNPSLKSRVTISLDRSKNQFSLKLSSVTAADTAVYFCARAPETYCSTTNCYKGYFDSWGQGTLVTVSS
VL: DIQMTQSPSSVSASVGDRVTITCRASQGISSWLGWYQQKPGKAPKLLIYAASSLQSGVPSRFSGSGSGTDFTLTISSLQPEDFATYYCQQANSFPRTFGQGTKVEIK
On to B1, for which the FRNT neutralisation of CHIKV-37997 and CHIKV-LR 2006 on Vero cells, EC50 was below 10 ng/mL.
